Measured values from patent publication US6429304B1, “Nucleic acids encoding a katanin p60 subunit” (The Regents of the University of California, priority 1998, dated 2002).

B1: p80 WD40-GFP: fusion of the six WD40 repeats of human p80 katanin (a.a. 1-263) to the N-terminus of green fluorescent protein (protein)
chain: MATPVVTKTAWKLQEIVAHASNVSSLVLGKASGRLLATGGDDCRVNLWSINKPNCIMSLTGHTSPVESVRLNTPEELIVAGSQSGSIRVWDLEAAKILRTLMGHKANICSLDFHPYGEFVASGSQDTNIKLWDIRRKGCVFRYRGHSQAVRCLRFSPDGKWLASAADDHTVKLWDLTAGKMMSEFPGHTGPVNVVEFHPNEYLLASGSSDRTIRFWDLEKFQVVSCIEGEPGPVRSVLFNPDGCCLYSGCQDSLRVYGWEPER
modifications: left off: large carriers
notes: fusion of the six WD40 repeats of human p80 katanin (a.a. 1-263) to the N-terminus of green fluorescent protein
B2: p80: S. purpuratus katanin p80 subunit, 690 a.a. with six WD40 repeats (SEQ ID NO:2), baculovirus-expressed, His-tagged (protein, listed as Strongylocentrotus purpuratus)
chain: MATKRAWKLQELVAHSSNVNCLALGPMSGRVMVTGGEDKKVNLWAVGKQNCIISLSGHTSPVDSVKFNSSEELVVAGSQSGTMKIYDLEPAKIVRTLTGHRNSIRCMDFHPFGEFVASGSTDTNVKLWDVRRKGCIYTYKGHSDQVNMIKFSPDGKWLVTASEDTTIKLWDLTMGKLFQEFKNHTGGVTGIEFHPNEFLLASGSSDRTVQFWDLETFQLVSSTSPGASAVRSISFHPDGSYLFCSSQDMLHAFGWEPIRCFDTFSVGWGKVADTVIASTQLIGASFNATNVSVYVADLSRMSTTGIAQEPQSQPSKTPSGGAEEVPSKPLTASGRKNFVRERPHTTSSKQRQPDVKSEPERQSPTQDEGVKDDDATDIKDPDSYAKIFSPKTRVDHSPERNAQPFPAPLDVPGAQEPEPFKHPPKPAAAAAVAPVSRAPAPSASDWQPAQANPAPNRVPAATKPVPAQEVAPSRKPDPISTIIPSDRNKPANLDMDAFLPPAHAQQAPRVNAPASRKQSDSERIEGLRKGHDSMCQVLSSRHRNLDVVRAIWTAGDAKTSVESVVNMKDQAILVDILNIMLLKKSLWNLDMCVVVLPRLKELLSSKYENYVHTSCACLKLILKNFTSLFNQNIKCPPSGIDITREERYNKCSKCYSYLIATRGYVEEKQHVSGKLGSSFRELHLLLDQLE
modifications: His tag; katanin p80 subunit

Key:
MSU1.1 human fibroblasts = experiment: Centrosome targeting of GFP fusion after transient transfection; format: cell-based; conditions: 2-4 hr after transfection
Description: To allow transient expression of a human p80 WD40-GFP fusion protein in HeLa cells, a DNA fragment containing amino acids 1-263 of human p80 katanin was generated by PCR amplification, placing a BamHI site and a Kozak consensus at the predicted translation start and an EcoRI site after the codon for a.a. 263. This BamHI-EcoRI fragment was ligated into the GFP fusion vector pEGFP-N1 (Clontech).
Both MSU1.1 and HeLa cells were grown on 18 mm glass coverslips in Optimem medium (Life Technologies) supplemented with 10% fetal bovine serum, penicillin and streptomycin. Plasmids were transfected using Superfect Reagent (Qiagen) for 2 hr after which coverslips were washed with PBS and placed in fresh culture medium at 37° C. with 5% CO2 for 1-24 hr.
For imaging of GFP-fluorescence and immunofluorescence with the human p80 katanin antibody or with the γ-tubulin antibody, monoclonal GTU88 (Sigma Chemical), cells on coverslips were fixed either in −20° C. methanol or in 0.5×PBS, 3.7% formaldehyde, 75% methanol at 22° C. for 10 min followed by rehydration in TBST. Antibody labelling was carried out in TBST containing 4% BSA. Images were captured with a Nikon Microphot SA microscope, 100×Plan Fluor 1.3 objective, Photometrics Quantix camera and IP Lab Spectrum software (Scanalytics).

[1] = ATPase assay (modified malachite green method); format: biochemical; conditions: baculovirus-expressed subunit alone
Description: ATPase activity was measured by a modified malachite green method (Kodama et al. (1986) J. Biochem. 99: 1465-1472). ATPase reactions of 50-100 μl were carried out in a buffer previously used for measuring the ATPase activity of native katanin [20 mM K-HEPES pH 8.0, 25 mM potassium glutamate 2 mM MgCl2, 10% glycerol (v/v), 0.02% Triton X-100 (w/v), 1 mg/ml BSA] (McNally and Vale (1993) Cell, 75: 419-429), except that soybean trypsin inhibitor (SBTI) was replaced by BSA as a carrier protein because SBTI increased background phosphate contamination. An ATP regenerating system, consisting of 0.5-1.0 mM phosphoenol pyruvate and 2 units of pyruvate kinase, was included to minimize the inhibition by ADP observed previously for native katanin (McNally and Vale (1993) Cell, 75: 419-429). Microtubules were prepared from bovine brain tubulin (Hyman et al. (1990) Meth. Enzymol. 196: 303-319; and Williams and Lee (1982) Meth Enzymol. 85B: 376-385). After assembly, microtubules were sedimented (230,000×g; 10 min), resuspended in ATPase buffer lacking BSA, and the polymers were resuspended by repeated passage through a 27 gauge needle. Microtubule concentration was determined by measuring the absorbance at 275 nm in 6 M guanidine HCl by using a molecular mass of 110 kDa and an extinction coefficient of 1.03 ml mg^−1 cm^−1 (Hackney (1988) Proc. Natl. Acad Sci. USA, 85: 6314-6318). ATPase reactions were carried out at room temperature, and were initiated by addition of katanin.

[2] = tested on: DAPI-labeled microtubules; experiment: DAPI fluorescence microtubule disassembly (severing) assay; format: biochemical, bovine; conditions: 2 μM microtubules
Excerpt: To better compare the microtubule severing activities of p60 and p60/p80, we developed a quantitative microtubule disassembly assay based upon a previous finding that DAPI fluorescence intensity is higher when this dye is bound to polymerized versus free tubulin (Heusele et al. (1987) Eur. J Biochem. 165: 613-620). […] This slower rate of microtubule disassembly is consistent with the previously described 2-fold decrease in ATPase activity of p60 compared with p60/p80.
ATPase activity was measured by a modified malachite green method (Kodama et al. (1986) J. Biochem. 99: 1465-1472). […] Microtubule concentration was determined by measuring the absorbance at 275 nm in 6 M guanidine HCl by using a molecular mass of 110 kDa and an extinction coefficient of 1.03 ml mg^−1 cm^−1 (Hackney (1988) Proc. Natl. Acad Sci. USA, 85: 6314-6318). […]
DAPI severing assays were performed using conditions where the change in fluorescence intensity was linear with the amount of tubulin polymer added (Heusele et al. (1987) Eur. J Biochem. 165: 613-620). […] The reaction volume was 80 μL, and fluorescence intensity was measured by exciting at 370 nm. and measuring the emission at 450 mn using a model 8100 fluorimeter (SLM Instruments) in photon counting mode.

[3] = tested on: Taxol-stabilized, rhodamine-labeled microtubules; experiment: Microscope-based microtubule severing assay; format: biochemical; conditions: p60, p60/p80 0.1 μM; p80 0.5 μM (5-fold higher)
Description: FIGS. 5A, 5B, and 5C illustrate the activities of recombinant katanin subunits. […] Taxol-stabilized, rhodamine-labeled microtubules were adsorbed onto the surface of a microscope perfusion chamber, and then recombinant katanin subunits were introduced. The time elapsed after perfusing p60/p80 (0.1 μM), p60 (0.1 μM), or p80 (0.5 μM) is shown. The recombinant co-expressed p60/p80 and p60, but not p80, can sever and disassemble microtubules. Scale bar, 10 μm.
Microscope-based severing assays were performed using previously published procedures (McNally and Vale (1993) Cell, 75: 419-429), except that microtubules were immobilized by first perfusing flow cells with a bacterially expressed kinesin mutant that binds strongly to microtubules but is unable to hydrolyze ATP (K560, G234A mutant; R. Vale and E. Taylor, unpublished results). Assays were performed in 20 mM Hepes (pH 7.5), 2 mM MgCl2, 1 mM ATP with an oxygen scavenger system consisting of glucose oxidase (220 μg/ml), catalase (36 μg/ml), glucose (22.5 mM), and 2-mercaptoethanol (71.5 mM). Images were captured using a cooled, slow-scan CCD (Photometerics) and processed using Adobe Photoshop.

Row | Molecule | localization of GFP fluorescence (MSU1.1 human fibroblasts) | ATPase activity (in words) [1] | change in DAPI fluorescence (in words) [2] | microtubule severing (in words) [3]
1 | B1 | co-localized with γ-tubulin staining | – | – | –
2 | B2 | – | no detectable ATPase activity | did not cause a change in fluorescence that was different from that shown for microtubules alone | unable to sever microtubules
